Assay [1] has as its target T1, human GITR (hGITR), full length, on cells (human, UniProt Q9Y5U5 26-241).
T1 sequence (looked up): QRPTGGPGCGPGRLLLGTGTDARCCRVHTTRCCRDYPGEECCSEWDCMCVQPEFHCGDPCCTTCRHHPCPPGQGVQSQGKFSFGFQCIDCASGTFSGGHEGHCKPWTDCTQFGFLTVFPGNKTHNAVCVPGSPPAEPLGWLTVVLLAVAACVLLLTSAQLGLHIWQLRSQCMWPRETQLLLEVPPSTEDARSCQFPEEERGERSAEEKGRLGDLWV
Briefly: cell-based or functional assay.

Assay [2] deals with T2, Apo-3 immunoadhesin (Apo-3 ECD fused to hinge and Fc portion of human IgG) (human, UniProt Q93038 25-199).
T2 construct: extracellular domain; also called DR3; wsl-1; not shown: hinge and Fc portion of human IgG, as described for TNFR1 in Ashkenazi et al. 1991
T2 sequence (looked up): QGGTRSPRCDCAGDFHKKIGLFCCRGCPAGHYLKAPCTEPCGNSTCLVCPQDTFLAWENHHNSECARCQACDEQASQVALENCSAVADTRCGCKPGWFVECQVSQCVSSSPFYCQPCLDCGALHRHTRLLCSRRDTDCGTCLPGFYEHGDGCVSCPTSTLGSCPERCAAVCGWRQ
The assay can be described thus: co-precipitation with protein A-sepharose, SDS-PAGE, autoradiography. On the procedure:
(§1) A soluble DNA19355 polypeptide was also prepared by expressing the ECD in E. coli cells (as described in Example 3 above). The soluble DNA19355 ECD molecule was then labeled with ¹²⁵I. For comparison, immunoadhesin constructs were also made of the following TNF receptor family members: CD95, DR4, DR5, TNFR1, TNFR2, and Apo-3. CD95, DR4, DR5, TNFR1, TNFR2, and Apo-3 immunoadhesins were prepared by fusing each receptor's ECD to the hinge and Fc portion of human IgG, as described previously for TNFR1 [Ashkenazi et al., Proc. Natl. Acad. Sci., 88:10535-10539 (1991)]. The respective TNF receptor family members are described (and relevant references cited) in the Background of the Invention section.
(§2) For the co-precipitation assay, each immunoadhesin (5 microgram) was incubated with ¹²⁵I-labeled soluble DNA19355 polypeptide (1 microgram) for 1 hour at 24° C., followed by protein A-sepharose for 30 minutes on ice. The reaction mixtures were spun down and washed several times in PBS, boiled in SDS-PAGE buffer containing 20 mM dithiothreitol and then resolved by SDS-PAGE and autoradiography.

Assay [3] has as its target T3, TNFR2 immunoadhesin (TNFR2 ECD fused to hinge and Fc portion of human IgG) (human, UniProt P20333 23-257, limits assumed).
T3 construct: extracellular domain; not shown: hinge and Fc portion of human IgG, as described for TNFR1 in Ashkenazi et al. 1991
T3 sequence (looked up): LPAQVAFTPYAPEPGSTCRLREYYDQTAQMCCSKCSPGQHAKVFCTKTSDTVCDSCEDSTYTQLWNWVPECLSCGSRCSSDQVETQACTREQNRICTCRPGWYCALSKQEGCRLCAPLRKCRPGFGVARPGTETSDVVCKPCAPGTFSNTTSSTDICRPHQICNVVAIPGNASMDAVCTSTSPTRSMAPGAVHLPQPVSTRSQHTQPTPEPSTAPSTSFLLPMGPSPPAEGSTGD
Described as above. The method, then:
as §1, §2

Assay [4] concerns the target T4, TNFR1 immunoadhesin (TNFR1 ECD fused to hinge and Fc portion of human IgG) (human, UniProt P19438 30-211, limits assumed).
T4 construct: extracellular domain; also called TNFR1-IgG; not shown: hinge and Fc portion of human IgG, as described in Ashkenazi et al. 1991
T4 sequence (looked up): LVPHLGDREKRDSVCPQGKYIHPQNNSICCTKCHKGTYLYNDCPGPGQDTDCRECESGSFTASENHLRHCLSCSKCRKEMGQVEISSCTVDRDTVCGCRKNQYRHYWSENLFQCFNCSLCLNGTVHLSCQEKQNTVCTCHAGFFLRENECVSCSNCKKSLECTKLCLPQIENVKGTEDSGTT
Described as above. On the procedure: as §1, §2

In assay [5] the target is T5, CD95 immunoadhesin (CD95 ECD fused to hinge and Fc portion of human IgG) (human, UniProt P25445 26-173, limits assumed).
T5 construct: extracellular domain; also called Fas-IgG; Fas/Apo1; not shown: hinge and Fc portion of human IgG, as described for TNFR1 in Ashkenazi et al. 1991
T5 sequence (looked up): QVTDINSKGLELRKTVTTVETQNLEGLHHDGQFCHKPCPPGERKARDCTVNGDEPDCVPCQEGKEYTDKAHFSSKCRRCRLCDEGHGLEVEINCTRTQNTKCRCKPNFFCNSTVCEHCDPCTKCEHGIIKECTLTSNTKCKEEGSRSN
The description is as above. On the procedure: as §1, §2

Assay [6] addresses T6, DR5 immunoadhesin (DR5 ECD fused to hinge and Fc portion of human IgG) (human, UniProt O14763 56-210, limits assumed).
T6 construct: extracellular domain; also called Apo-2; not shown: hinge and Fc portion of human IgG, as described for TNFR1 in Ashkenazi et al. 1991
The description is as above. On the procedure: as §1, §2

Assay [7] has as its target T7, DR4 immunoadhesin (DR4 ECD fused to hinge and Fc portion of human IgG) (human, UniProt O00220 24-239, limits assumed).
T7 construct: extracellular domain; not shown: hinge and Fc portion of human IgG, as described for TNFR1 in Ashkenazi et al. 1991
T7 sequence (looked up): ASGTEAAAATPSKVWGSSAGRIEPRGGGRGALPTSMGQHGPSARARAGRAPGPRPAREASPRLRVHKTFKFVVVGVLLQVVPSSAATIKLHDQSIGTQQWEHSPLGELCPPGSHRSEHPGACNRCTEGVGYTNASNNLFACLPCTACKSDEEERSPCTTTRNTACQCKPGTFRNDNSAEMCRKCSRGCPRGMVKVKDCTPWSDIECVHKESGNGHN
The description is as above. On the procedure: as §1, §2

The target in assay [8] is T4, TNFR1 immunoadhesin (TNFR1 ECD fused to …). Briefly: FACS on HUVEC cells (endogenous DNA19355 transcripts). On the procedure:
The DNA19355 polypeptide was identified in a human umbilical vein endothelial cell (HUVEC) library, and the DNA19355 polypeptide transcripts are readily detectable in HUVEC by RT-PCR (data not shown). […] HUVEC cells were purchased from Cell Systems (Kirkland, Wash.) and grown in a 50:50 mix of Ham's F12 and Low Glucose DMEM media containing 10% fetal bovine serum, 2 mM L-glutamine, 10 mM Hepes, and 10 ng/ml basic FGF. Cells were FACS sorted with PBS, hGITR-IgG, TNFR1-IgG or Fas-IgG as a primary antibody and goat anti-human F(ab′)2 conjugated to phycoerythrin (CalTag, Burlingame, Calif.).

Two molecules from patent US20040234498A1 (Genentech, published 2004) can be followed below.

B1: soluble DNA19355 polypeptide (His10-tagged extracellular region, amino acids 52 to 177, expressed in E. coli) (ligand)
chain: MGHHHHHHHHHHSSGHIDDDDKHMETAKEPCMAKFGPLPSKWQMASSEPPCVNKVSDWKLEILQNGLYLIYGQVAPNANYNDVAPFEVRLYKNKDMIQTLTNKSKIQNVGGTYELHVGDTIDLIFNSEHQVLKNNTYWGIILLANPQFIS
modifications: 125I-labeled (radioiodinated) in the co-precipitation assay
notes: also called soluble DNA19355 ECD molecule; radioiodinated soluble DNA19355 polypeptide
For the molecule B1, the “secreted TNF-alpha levels from primary human T cells (ELISA of culture supernatants)” value in assay [1] was about 20 fold. The binding result in assay [2], in assay [3], in assay [4], in assay [5], in assay [6] and in assay [7] was “no binding” each time.

B2: full length DNA19355 polypeptide on cells (ligand)
chain: MCLSHLENMPLSHSRTQGAQRSSWKLWLFCSIVMLLFLCSFSWLIFIFLQLETAKEPCMAKFGPLPSKWQMASSEPPCVNKVSDWKLEILQNGLYLIYGQVAPNANYNDVAPFEVRLYKNKDMIQTLTNKSKIQNVGGTYELHVGDTIDLIFNSEHQVLKNNTYWGIILLANPQFIS
notes: also called full-length DNA19355 protein; GLITTER
For the molecule B2, the binding result in assay [8] is “no binding”.
